According to the DeepSol protein solubility set:

Experiment: soluble on expression in E. coli; label from the status in PepcDB or PDB records
With “MFRSSLTHLQAVSRVFIMGGHITPFVGKGSKLFIDKKHPDFGKKQNMTLEEILATTVQHTIENTGLNGKEDIVDQVVVGNFLGELFSSQGHLGPAAIGSLTYGQAGAKNPLMYKPAMRVEGACASGGLAVVSATNALKAGSADIALAVGVEVQTTATARVGGDYLARAADYQRQRKLDDFTFPCLFAKRMKYIAEHNHFTMEDTARVAAKAYANGNRNPLAHMHTRKLSFEQCNGEDPSNVKFLGNETYKEYLRMTDCSQVSDGGAGVVLANEEGLKKMGLSPNDSRLVEIKSIACAVSNLYEDPDDACCMFTSRQAAQKALSMANVKPSDLNVAEVHDCFTIAEMLMYEALGIAEYGHAKDLIRNGETTLEGRIPVNTGGGLLSFGHPVGATGIKQVMEVYRQMKGQCGAYQMKKIPALGATLNMGGDDKTAVSAVLQNI” the “soluble on expression in E. coli” value was “not soluble”. For “MFSDTDISMMENALRLAALGRFSTSPNPRVGCVIAHGSQIVGQGFHVKAGEPHAEVHALRQAGEMAQGATAFVTLEPCSHYGRTPPCAEALVRAGVSRVVAAMRDPNPLVAGKGLALLEAAGIKTECGLLEHQARELNRGFLSRIERRRPFVRLKCAVSLDGKTALSDGSSFWITGEDARADVQVLRAESCAVLTGIGTVLADNPRLNVRAFPTLRQPARIVLDSRLRLPPNSHLVTDGQSPTYIATLERNEDRLHPYREHAHVRILMPSETADSKIDLHHLMRLLADEGFGEIMVEAGSELTSAFLAENLADEIVLYRSPKILGSGKDLFSLLENRAALSAPPLWTPVSSEILGHNIKTVFRKNGNAF”, the “soluble on expression in E. coli” value was “soluble”. With “MFSIIIPIYNSENYLRYSIESVLNQSIGFKENIELILIDDGSVDSSPQICESFKNLYPNNIKIMKIENSGPSAARNCGLSNVSERSKFIGFLDSDDAFSQNALQSVYDFFCDSEHVNIAVLPVYYTGEKEGGHKLNNRFEKGTRVINILNDYKAIHFYIGGTFYRRHTLTSTVLFDESIKFWEDAIFFNQLLLKEKRYGAVAEGKYFYRKRKEQDSLVDRSWFNKKRYTYLLNECYMTLLMDSFNKYDIVLPYLQFLIVYHIKLFLYPNYRDVYKSVLDQQEQRVFVDDFIKVLKFIDPQFIKEQDMPMYYKEFMFHLLKENTEALENIKKERVLHSSCTVTSAKIKGLRLELTGHFINQYYEMKENDRIYIKYFKRLKKCKRKELKKTIEVWGYKLRDFRYAGFVVEIPIWAFAFDFVLKTPNDSLELNHVNIFKSLLTRVFKKRLEHHHHHH” the “soluble on expression in E. coli” value was “soluble”. In the case of “MFSKLAHLQRFAVLSRGVHSSVASATSVATKKTVQGPPTSDDIFEREYKYGAHNYHPLPVALERGKGIYLWDVEGRKYFDFLSSISAVNQGHCHPKIVNALKSQVDKLTLTSRAFYNNVLGEYEEYITKLFNYHKVLPMNTGVEAGETACKLARKWGYTVKGIQKYKAKIVFAAGNFWGRTLSAISSSTDPTSYDGFGPFMPGFDIIPYNDLPALERALQDPNVAAFMVEPIQGEAGVVVPDPGYLMGVRELCTRHQVLFIADEIQTGLARTGRWLAVDYENVRPDIVLLGKALSGGLYPVSAVLCDDDIMLTIKPGEHGSTYGGNPLGCRVAIAALEVLEEENLAENADKLGIILRNELMKLPSDVVTAVRGKGLLNAIVIKETKDWDAWKVCLRLRDNGLLAKPTHGDIIRFAPPLVIKEDELRESIEIINKTILSF”, the “soluble on expression in E. coli” value is reported as “soluble”. With “MFSRGASTMQSRELREQLLGCVKSRKSLHVTGPPGSGKSTFVSRLAEALRVKGCRLGGFMAPEVRRGGRRVAFKIVDIASGEEGYLAVADESLAAPGGRRARHGRYLVLVDEAWRVMSHAIRNAFEHADIIIVDEIGPMELAVPGFREALTEILDSGKPLVTVFHRRLRTLDPGLYKLLERGCIVWLDERNRGPLIRLVSEIASALSNEACGNSLEHHHHHH” the “soluble on expression in E. coli” value was “not soluble”. With “MFTAGSATVTPKLNGVAGPAFQVIKDSLTLGLNALTLTDVTKNAAYGVEIESLVLEINAPAA” the “soluble on expression in E. coli” value was “soluble”. With “MFTIRKARIDDCGLINQMAGEVFPATYQEILSPGQLDYMMDWMYSPENIRKQMEEEGHVYFIAYEGDEPCGYVSVQQQEENVFHLQKIYVLPHFQGAHCGSFLFREAVRYIKEVHPEPCLMELNVNRNNKALLFYERMGMRKLREGDFPIGNGYYMNDYIMGLDI” the “soluble on expression in E. coli” value was “not soluble”. For “MFVDRQRIDLLNRLIDARVDLAAYVQLRKAKGYMSVSESNHLRDNFFKLNRELHDKSLRLNLHLDQEEWSALHHAEEALATAAVCLMSGHHDCPTVITVNADKLENCLMSLTLSIQSLQKHAMLEKA”, the “soluble on expression in E. coli” value was “soluble”. In the case of “MFVFMLLLLLPFTISKAKDFPANPIEKAGYKLDFSDEFNGPTLDREKWTDYYLPHWCKDPESAKANYRFENGSLVEYITEDQKPWCPEHDGTVRSSAIMSFDKSWIHNFSGTTDNHERNEWRGYTTKYGYFEIRAKLSNTGGGGHQAWWMVGMQDDTNDWFNSKQTGEIDILETFFSKKDTWRIAAYGWNDPNFQTSWTISEDKVPSGDPTSEYHIYAMEWTPTALKFYYDNELFKVIYGSPDYEMGTILNIYTDAGSGAHNDVWPKEWAIDYMRVWKPVDGYKESESLNNYLIRNRQTGKFLYIEENNDKVSYGDITLKNEKNAKWSKEYRDGYTLLKNNETGEYLNIENQTGYIEHGKVPKTWWSAQWSEVPVDGYTRFVNRWKPNMSIHTESYEGVLQYGNVPNTYWTSQWQLIPVE”, the “soluble on expression in E. coli” value is reported as “soluble”. With “MFVKNVNFYYRQILEKFENSYFAEDLTKVIIGIDCDYLDANELSFSEFKAKYYEALSKNKICDFAGFFGVFSANFVSLFEKIPLSSKKNYDFPLFLFANAKAYLIYEKNSKMFFKFGASKYFEYLKDDIEPMKKKQKNDFEILNSLEDEKNDFLKMCEKAKEYLLSGDIFQVVLSKQLCIKHQVNAFDYYESLSALNPSAYMFYFPSKYGVVLGSSPEFLLKIKKREIYLAPIAGTRNLENNCDLLALEKDLLSDEKELSEHKMLVDLARNDASKFGTQTRVENLFSIIKNKFVMHIVSEVYANMKEDASIFDVIEAVFPAGTLSGAPKIRALEITSELEDCDRGIYGGAVGFLNFNEDITLAILIRCAFFTQDKAYLASGAGIVLQSESQKEYAEICAKRKALLVAFENLKKENQ” the “soluble on expression in E. coli” value was “not soluble”. With “MFVTLEVSDRAPLEATMSTPHHPVAIIGGGLGGLTAARVLHVNGIESAVFDLESGPEARTQGGMLDIHEENGQEAIRAAGLHDEFREIIHEGGQAMRLVGPDGTVRVATEDQGDGGRPEVDRGDLRGLLLNSLPDGTVHWRHKATGARALDDGRHEVTFADGSALTTDLLIGADGAWSRIRPLLSDAEPAYTGISFVESDLHEADTRHPRSAALVGGGFFISLGDRRGFLAHRETDGSLHVYTALRADEGWIDTVDFTDHAAAKAAVLAHFDGWDEGLRSLVAHAETITPRRIHALPVGHRWKRTPGVTLLGDAAHLMSPFAGEGANLAMYDGAELALALAAHPGDTEAALTQYEEGLFPRSEASAVESAGSLDTMFGTDGLEQMIGFFGAGRAEALEHHHHHH” the “soluble on expression in E. coli” value was “not soluble”. In the case of “MGAFDRVKAQVASDSKWTSAPYKGFVAGSPSNTYIDIVSTAFEDATNTMNFARHSKYDEMYSPYLGSFRERHNYTSIAPSLCINKTNRAIEYDLAPHKAYNPRQSEWLLEKDKKYRVRGARNLIYTKSASDISLPPLTRRTFTVPTDTLRHQNQFLYWNGRALGLDYVAPFLRREDYSRHEDRRYQRIYWSPHFIDLLPSCRHSAHLMLSAY”, the “soluble on expression in E. coli” value is reported as “not soluble”. In the case of “MGAGPSDHRAITLEGTTVMVPVYNSTAQQSPYQLTTTADGGVALHHQGELTTTLETPPEPHFYNLQTAESIPYKAIALLHGKDVLATTLQQTCIRFRDRSESCQFCAIEQSLTSGQTIVRKTPEQVAEVVAAAVRLDGVRQLVMTTGTPNSRDRGARLMAETAAAVKAVVDIPIQAQCEPPDDPVWFSRMKAAGVNSLGMHLEVVEPEVRRRILPGKSELTLEHYYRAFEQAVAVFGRGEVSTYLLAGLGDSADSLIDCSRRLIAIGVYPFIVPFVPIAGTPLERHPAPTTAFMLQIYEAVGALLHDSDLRSAAMSAGLEHHHHHH”, the “soluble on expression in E. coli” value is reported as “not soluble”. In the case of “MGAIKPLEDWLKNLGVKSDIRPNLLAGMEINDQICSVPLQTSNIGILERSKLFQAAGITEPPKTWEELRAVVKKSTIDKNGDHRPEQYGMLLTFGKGGWTVFSWLPFLFAAQGEIITDHYPSLSNPGAITALQFW”, the “soluble on expression in E. coli” value is reported as “not soluble”. For “MGALESLRGNADLAYILSMEPCGHCLIINNVNFCRESGLRTRTGSNIDCEKLRRRFSSLHFMVEVKGDLTAKKMVLALLELARQDHGALDCCVVVILSHGCQASHLQFPGAVYGTDGCPVSVEKIVNIFNGTSCPSLGGKPKLFFIQACGGEQKDHGFEVASTSPEDESPGSNPEPDATPFQEGLRTFDQLDAISSLPTPSDIFVSYSTFPGFVSWRDPKSGSWYVETLDDIFEQWAHSEDLQSLLLRVANAVSVKGIYKQMPGCFNFLRKKLFFKTSHHHHHH”, the “soluble on expression in E. coli” value was “soluble”. In the case of “MGAMIVKEVYETAEKIKSMEIRGAGRIARAAAQALMIQAEKSKAKEPEELWNELKVASKILYNTRPTAVSLPNALRYVMHRVKAAYLGGADLETLRFTAINSAKEFIYNSEKAIERIGEIGAKRIEDGDIIMTHCHSKAAISVMKKAFEQGKNIKVIVTETRPKWQGKITAKELASYGIPVIYIVDSAARHYMKMTDKVVMGADSITANGAVINKIGTSLIALTAKEHRVWVMIAAETYKFHPATMLGQLVEIEMRDPTEVIPEEELRTWPKNIEVWNPAFDVTPPEYIDVIITERGIIPPYAAIDILKEEFGWALKYKEPWED”, the “soluble on expression in E. coli” value is reported as “soluble”. In the case of “MGATGSSQLEKEISTTESVNNANEHYYGLVNALFFCRPFREKVLNYKQTLKKSGASKDNLVTCLADLFHSIASQKRRVGTIAPKRFITKLKKENELFDNYMQQDAHEFFNYLINTISETLIQEKIAEREKASRHGTLKKGNVTVNLAPATAGLPRSDEKGTSERNGGITVEGNEFLNKSDTTTWIHEIFQGILTNETRCLSCETVSSKDEDFLDLSIDVEQNTSISHCLRVFSETETLCGDQKYFCETCSSKQEAQKRMRIKKPPQLLALHLKRFKFVEPLNRHTKLSYRVVFPLELRLFNVSDDAEYGDRMYDLVATVVHCGATPNRGHYITLVKSNSFWLVFDDDIVEKLEVSSMEEFSGMSTDANIQMPPGNQSAPQKEFRICLYSVLSGKRLRC”, the “soluble on expression in E. coli” value is reported as “not soluble”. For “MGCLATPVRTEVLKALEYSQRICALRSCSRFIRSPRAMFKRQHTDADVLEHPVSASAPATWSLIGEHTDHAGGVVLMSVAQLRTHVEATTRADDIVSVDYYIADPEMPVQQSAISLSDVFEWQNSLSGDHEPLESP”, the “soluble on expression in E. coli” value was “not soluble”. With “MGDIMQQQLTQALEAYLQKLDDEARIEAINAFRQVLHHYSPFRSQPVDCVLWVKQELVAPNDYNPNNVAPPEKRLLQTSLEADGFTQPVVVIQQRPQAYTIVDGFHRHELACSKAALKKTLKGYLPVTCLTSEAASRDGLMAATIRHNRARGRHQIHAMSEIVRELTQLGWTPQKIGKELGMDADEVLRLKQISGLTEMFAGRQFSQAWTIK” the “soluble on expression in E. coli” value was “not soluble”. In the case of “MGDLKDGTYKLEEKNEKNGYRAVFEMTVKDGKITESKYDNINADGKSKTEDTKYEESMKAKSGVGPKEYIKQLNDSFVKAQSASGVEVVTGATHSSESFQNYAQQLIQAAQAGNTDTIEIDNGATLKDGTYSLKEKNDSNGYHTTFSMTVKDGKVTESNYDNVNADGKSKKDDTEYESKMKDVAGVGPKEYIETLNKEFVKAMGEEDGSPAGVEVVTGATHSTHSFINYAQQLVNAAEKGDTTEIVVDNIVTKLEHHHHHH”, the “soluble on expression in E. coli” value is reported as “soluble”.
